For one molecule, Kd results are on record in paper PMC3260217.

The data set has as its target NP wt (Influenza A virus H1N1 (A/WSN/33), UniProt P15682 1-498). As to the kind of experiment: SPR. Particulars: protein: recombinant; tags: C-terminal 6xHis; label: 5'-biotin; single strand.

One may read the Kd as a measure of binding affinity in units of concentration. In the case of UUUGUUACACACACACACGCUGUG (ssRNA) [Flu1 RNA 24-mer], the Kd turned out to be 41 ± 7 nM.
